The results in this text go back to patent publication EP1616575B1 (ZymoGenetics, Inc., dated 2012).

The target of one assay is T1, IL-20RA (human, UniProt Q9UHF4 30-553).
T1 construct: Expressed alone on stably transfected BHK cells; also called Zcytor7; IL-20RA receptor subunit alone
T1 sequence: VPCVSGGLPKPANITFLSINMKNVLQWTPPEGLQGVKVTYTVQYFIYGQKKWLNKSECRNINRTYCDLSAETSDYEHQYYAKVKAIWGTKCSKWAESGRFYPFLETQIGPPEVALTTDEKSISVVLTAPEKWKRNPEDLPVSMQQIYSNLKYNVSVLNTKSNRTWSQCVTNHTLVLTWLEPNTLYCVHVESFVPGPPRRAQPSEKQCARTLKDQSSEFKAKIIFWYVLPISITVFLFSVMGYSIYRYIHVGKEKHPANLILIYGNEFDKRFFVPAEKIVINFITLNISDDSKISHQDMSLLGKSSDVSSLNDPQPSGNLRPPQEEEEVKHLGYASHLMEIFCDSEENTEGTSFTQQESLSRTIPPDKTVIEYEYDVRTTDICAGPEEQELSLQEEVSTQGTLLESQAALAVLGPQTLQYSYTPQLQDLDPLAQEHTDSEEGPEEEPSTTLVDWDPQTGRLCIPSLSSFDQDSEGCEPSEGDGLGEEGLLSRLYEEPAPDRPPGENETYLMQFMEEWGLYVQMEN
In words: radiolabeled IL-20 binding to BHK cells stably transfected with IL-20RA alone.

In the next assay the target is T2, IL-20RB (human, UniProt Q6UXL0 30-311).
T2 construct: Expressed alone on stably transfected BHK cells; also called IL-20RB receptor subunit alone
T2 sequence: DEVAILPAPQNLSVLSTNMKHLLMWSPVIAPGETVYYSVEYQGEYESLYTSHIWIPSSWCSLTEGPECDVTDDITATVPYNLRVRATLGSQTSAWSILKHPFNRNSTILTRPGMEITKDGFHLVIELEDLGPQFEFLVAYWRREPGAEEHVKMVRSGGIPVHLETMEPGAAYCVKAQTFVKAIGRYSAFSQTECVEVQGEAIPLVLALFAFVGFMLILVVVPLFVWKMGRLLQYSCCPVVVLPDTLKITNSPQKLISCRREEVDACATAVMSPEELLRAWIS
In words: radiolabeled IL-20 binding to BHK cells stably transfected with IL-20RB alone.

Assay [1] addresses T3, IL-20RA/IL-20RB heterodimeric receptor (human, UniProt Q9UHF4 30-553; Q6UXL0 30-311).
T3 construct: Both subunits co-expressed on cells: transfected COS, BHK and BaF3 cells, and endogenous on HaCaT keratinocytes; also called IL-20 receptor; IL-20RB-IL-20RA heterodimer
T3 sequence 1: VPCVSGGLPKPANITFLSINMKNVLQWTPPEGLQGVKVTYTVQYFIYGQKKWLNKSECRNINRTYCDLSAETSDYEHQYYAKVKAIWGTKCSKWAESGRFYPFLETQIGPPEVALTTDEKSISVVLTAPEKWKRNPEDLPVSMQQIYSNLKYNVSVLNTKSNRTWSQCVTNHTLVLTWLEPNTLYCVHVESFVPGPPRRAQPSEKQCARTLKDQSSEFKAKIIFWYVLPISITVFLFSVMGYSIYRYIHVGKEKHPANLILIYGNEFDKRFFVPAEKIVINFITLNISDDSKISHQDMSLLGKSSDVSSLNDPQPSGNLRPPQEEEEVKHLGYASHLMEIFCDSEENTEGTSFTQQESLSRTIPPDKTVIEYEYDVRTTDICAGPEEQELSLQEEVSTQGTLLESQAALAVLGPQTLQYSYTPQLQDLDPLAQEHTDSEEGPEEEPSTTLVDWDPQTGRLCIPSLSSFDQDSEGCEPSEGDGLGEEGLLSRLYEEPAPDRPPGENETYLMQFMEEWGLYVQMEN
T3 sequence 2: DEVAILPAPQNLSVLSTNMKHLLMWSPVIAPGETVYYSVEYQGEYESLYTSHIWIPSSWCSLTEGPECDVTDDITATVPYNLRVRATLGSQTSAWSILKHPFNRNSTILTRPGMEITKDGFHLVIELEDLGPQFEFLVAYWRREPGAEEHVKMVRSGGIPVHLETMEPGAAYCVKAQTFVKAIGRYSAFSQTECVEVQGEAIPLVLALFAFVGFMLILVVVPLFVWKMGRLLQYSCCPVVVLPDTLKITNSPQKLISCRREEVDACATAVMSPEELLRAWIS
In words: 125I-IL-20 binding to BHK cells stably transfected with IL-20RA and IL-20RB.

B1: IL-20 (ligand, UniProt Q9NYY1 25-176, looked up)
chain: LKTLNLGSCVIATNLQEIRNGFSEIRGSVQAKDGNIDIRILRRTESLQDTKPANRCCLLRHLLRLYLDRVFKNYQTPDHYTLRKISSLANSFLTIKKDLRLCHAHMTCHCGEEAMKKYSQILSHFEKLEPQAAVVKALGELDILLQWMEETE
notes: also called Zcyto10; biotin-labeled IL-20 protein
One may read the Kd as the free concentration of one partner at which half of the binding sites on the other are occupied at equilibrium, for simple one-to-one binding. As for B1, the binding result in the assay with IL-20RA and with IL-20RB was “no binding” each time. This molecule also returned a Kd in assay [1] of around 1.5 nM.
